Assay results from the DeepSol protein solubility set.

test: soluble on expression in E. coli; label from the status in PepcDB or PDB records

Sequence	soluble on expression in E. coli
MGSDKIHHHHHHKTEEHEKIEVLYETTLNLIHLLVEQGVIKQEVADEMIRKAEQKAKASQQQAREQGGQPPAGEPKKGEVRVTYVPEHIKKEIRDQLREEVVGQAKQERWGNVNATPEWLDRFTLEGDIRLREQADFFGDRNAPAANFQAIGQQIDNTTKDSHHRERIRMRLGINANVTRGVDLGLRLTTGNVNGPAVTGDLMGGSPTSTLQTLGTYNSKFSFVLDQAYLKLSPWDWLTVSGGRFPNPFFVGTVGNIYTGTIGKAPHTIPTAGVVHTDLLWDADVNFEGLAVNLHPWKKQERTIKPFLNAGIFPLQKINQSETVKAKDKWFYGAQAGIEWVPEGADTKIRLGAAYYDFENISGVRNPNFGDTLFNQTAPLFRQKGNSLFNIDNDGDPTTNLWALASDYKIANATLVADYSRFKPIHVIGTLDYARNVGYDQDRILARTGQDIKPEINAYQARLTVGYPVISERHQWQVLGFYRRSERDSMLDAFTDSNYLLGGTNHKGYTIQGLYGVAHNTWVGLRYMSYDNISGLPLSIDSVNLDLNARF	not soluble
MSLIRDMQLSRFSIPFAAPIRVGGQELNKRDGLLVAVRDDQGHTGWGEAAPLPGLDTISLDQCQGELCPIRKAFADQALNWDSFSLTAPMMGLCPEIPGLNPISAFGVESALAWLGLCSGQWGIAGADELGIAVNGLFVPSPDPDRLPAQAKQLKASGFSTVKIKIGRMDSDDEIRQILELDSLFNHKLALRLDANRSLDFAQYQSYFEALKHLNIEYVEEPLKPEYDFFEAAQIPWPLALDESLESYANLDEPFPKSLGAVILKPGSFQGVHGMAQAMEHLHTQGIKTVLSSSFNNTMGMSMLGLLANLYAPETAHGLDTLKYFQPSDLSLGLSIAKGRMAIPVDLFGGGLNLASGLMEEIAEGHHHHHH	soluble
SSNPRSLEEEKYDMSGARLALILCVTKAREGSEEDLDALEHMFRQLRFESTMKRDPTAEQFQEELEKFQQAIDSREDPVSCAFVVLMAHGREGFLKGEDGEMVKLENLFEALNNKNCQALRAKPKVYIIQACRGEQRDPGETVGGDEIVMVIKDSPQTIPTYTDALHVYSTVEGYIAYRHDQKGSCFIQTLVDVFTKRKGHILELLTEVTRRMAEAELVQEGKARKTNPEIQSTLRKRLYLQ	soluble
MGSDKIHHHHHHVAKAELMQLPASQMVIGLTVKLPLGWTQHPFFINRIKLTSQAQIELIRGLELTFVYVLSGHELLPEVIEEVEDKQADPMQVKAKPKKVLDSKAAVIKAMRVGQQRFLSNINESRSVFAQFAIEPDKAYREAATMVEGFVDHLQETDTPYLALVGSGEMDVSVTQHGISVAVLSLMIGHALELPKSDLRDLALGSLFHDFGKLKIPDNIRRKRSELTEPEQNYLKMHPNLGFDLLNACNLYPKSVLNIVLHHHEYIDGSGYPDHLTEKDIPLLTQIVSLANDYEGLLEQFTFSPQLALGTLFKSHAKKHAQNLIAALVKVLGIYPPGTLVSLSDGSIGKVMMTTREVKQPHVWSCNLGGGEANLRFLLEEDVTVSSVLRLEELTEGALKTLQADSPISFYFSALPDN	not soluble
MKRKESAFKSMLKQAAPPIELDAVWEDIRERFVKEPAFEDITLESERKRIFKDFMHVLEHECQH	soluble
MKQLATPFQEYSQKYENIRLERDGGVLLVTVHTEGKSLVWTSTAHDELAYCFHDIACDRENKVVILTGTGPSFCNEIDFTSFNLGTPHDWDEIIFEGQRLLNNLLSIEVPVIAAVNGPVTNHPEIPVMSDIVLAAESATFQDGPHFPSGIVPGDGAHVVWPHVLGSNRGRYFLLTGQELDARTALDYGAVNEVLSEQELLPRAWELARGIAEKPLLARRYARKVLTRQLRRVMEADLSLGLAHEALAAIDLGMESEQ	soluble
MTEADYGEMVRREKCIMFVKRFCPYSIRARELLHDRGVGCKIIEVDNNLDAYSFAKRNHSTFPVFFLDGDLVEGGCEKLLVLSDSNLPPFDKSPLLTQNREPVLLD	not soluble
MAHHHHHHMRPSLPKKVLAWIASYPSYFIVDDPTEKDPSKARIRRASDRQPLDVALELYRWIPEEGISEAALLTKLSEVHRDYVKRIGLRHIVDSLSEWLSFTEAPGGGGGGAEGEEKVLLLRRLQTEVELERAIHTEESKLASGDENSLPVQIEDAEMERRWPKLKYEGTMSQQQASVARAQQRRGRGDI	soluble
MNNTIETILAHRSIRKFTAVPITDEQRQTIIQAGLAASSSSMLQVVSIVRVTDSEKRNELAQFAGNQAYVESAAEFLVFCIDYQRHATINPDVQADFTELTLIGAVDSGIMAQNCLLAAESMGLGGVYIGGLRNSAAQVDELLGLPENSAVLFGMCLGHPDQNPEVKPRLPAHVVVHENQYQELNLDDIQSYDQTMQAYYASRTSNQKLSTWSQEVTGKLAGESRPHILPYLNSKGLAKR	soluble
MKKNLLLLLCLFCLVNVCHAKAKDTFTVFQLNLWHGCTKVPNGDQGIIDVLDQMDADVVFLCEIRDGKQFIPHVIEELEKRGKHYYGETFDLAIGVLSKFKPDSWTKCCIVPGDEGRAMVKMVATIEGQPVSFYSCHLDYRHYQCYMPRGYNGTTWKKMDKPITDEEEVLKANRQSFRDETIRAFIQEVQSDIQQGRPIIMGGDFNEPSHLDWQADTKDLWDHNGAIIHWDCSMMLSKAGFKDAYREKFPNTVRYPGFTFPAGNKLAEEAKLEKLAWAPEADERDRIDFIYYYPLESMLSMKDSKLVGPSETVVRGKITENDSKDKILTPSCIWPSDHKGNLATFKIRKKRLEHHHHHH	not soluble
MTDSTPQGSTPGMSPEAILNGTGKPWEEWLKLLDDVKATSWTHTHIAKHIVDNFDVSGWWAQGIAIGYEYERGMRKPGMTSDGFAANASKTLNLPVEKVWKLFGDDDLRAQWLDPALIEKTSASEPRTFNAKWLADDSRVSVNFTSKGDNKSSFGIQHRRLPDQDSIPVMKAFWKERIAALVEVSKQFSLLEHHHHHH	soluble
MSLSGLHQADLEMVAAAYAKSNATIVTYGMGITQHNEGTANVRLICDLLMLRGNLGKPGAGICPLRGHSNVQGNRTVGITEKPSPAFLDKLQQTFGFTPPAHHGHDAVQAMQAMIAGSAKALLCLGGNFAVALPDPGQCFPAMGKLDLSVHIATKLNRSHLLVARETFLFPCLGRTELDMQDGLRQAITVEDSMSMVHASAGKLAPASEFLLSEPAIVAGMARATLPGSRVPWLELVADYDKIRDLIEQTVPGFDDYNARIRVPGGFRMPLAAAERQWLTPSGKAEFFVFPGLHEDKEVDGADVLRLITLRSHDQYNTTIYALDDRYRGVFGRRDVLFISPADLAARGLAHGDLVDIETVIGGRRLRYEKITAIEYKIANGTVGAYYPEANRLVPLDYLDVDSGTPSYKSVPVRVLRSSPAEGHHHHHH	not soluble
MEGDTISRMMGSGVQMDGKILQTFEKSFVQVQNILDHNRLLINEINQNHESKIPDNLGRNVGLIRELNNNVRRVAHLYVDLSNNFSKSMEASSEGDSSEGRGNRRIRPA	soluble
CGVGFIAAIDGKPRRSVVEKGIEALKAVWHRGAVDADGKTGDGAGIHVAVPQKFFKDHVKVIGHRAPDNKLAVGQVFLPRISLDAQEACRCIVETEILAFGYYIYGWRQVPINVDIIGEKANATRPEIEQIIVGNNKGVSDEQFELDLYIIRRRIEKAVKGEQINDFYICSLSARSIIYKGMFLAEQLTTFYPDLLDERFESDFAIYHQRYSTNTFPTWPLAQPFRMLAHNGEINTVKGNVNWMKAHETRMEHPAFGTHMQDLKPVIGVGLSDSGSLDTVFEVMVRAGRTAPMVKMMLVPQALTSSQTTPDNHKALIQYCNSVMEPWDGPAALAMTDGRWVVGGMDRNGLRPMRYTITTDGLIIGGSETGMVKIDETQVIEKGRLGPGEMIAVDLQSGKLYRDRELKDHLATLKPWDKWVQNTTHLDELVKTASLKGEPSDMDKAELRRRQQAFGLTMEDMELILHPMVEDGKEAIGSMGDDSPIAVLSDKYRGLHHFFRQNFSQVTNPPIDSLRERRVMSLKTRLGNLGNILDEDETQTRLLQLESPVLTTAEFRAMRDYMGDTAAEIDATFPVDGGPEALRDALRRIRQETEDAVRGGATHVILTDEAMGPARAAIPAILATGAVHTHLIRSNLRTFTSLNVRTAEGLDTHYFAVLIGVGATTVNAYLAQEAIAERHRRGLFGSMPLEKGMANYKKAIDDGLLKIMSKMGISVISSYRGGGNFEAIGLSRALVAEHFPAMVSRISGIGLNGIQKKVLEQHATAYNEEVVALPVGGFYRFRKSGDRHGWEGGVIHTLQQAVTNDSYTTFKKYSEQVNKRPPMQLRDLLELRSTKAPVPVDEVESITAIRKRFITPGMSMGALSPEAHGTLNVAMNRIGAKSDSGEGGEDPARFRPDKNGDNWNSAIKQVASGRFGVTAEYLNQCRELEIKVAQGAKPGEGGQLPGFKVTEMIARLRHSTPGVMLISPPPHHDIYSIEDLAQLIYDLKQINPDAKVTVKLVSRSGIGTIAAGVAKANADIILISGNSGGTGASPQTSIKFAGLPWEMGLSEVHQVLTLNRLRHRVRLRTDGGLKTGRDIVIAAMLGAEEFGIGTASLIAMGCIMVRQCHSNTCPVGVCVQDDKLRQKFVGTPEKVVNLFTFLAEEVREILAGLGFRSLNEVIGRTDLLHQVSRGAEHLDDLDLNPRLAQVDPGENARYCTLQGRNEVPDTLDARIVADARPLFEEGEKMQLAYNARNTQRAIGTRLSSMVTRKFGMFGLQPGHITIRLRGTAGQSLGAFAVQGIKLEVMGDANDYVGKGLSGGTIVVRPTTSSPLETNKNTIIGNTVLYGATAGKLFAAGQAGERFAVRNSGATVVVEGCGSNGCEYMTGGTAVILGRVGDNFAAGMTGGMAYVYDLDDSLPLYINDESVIFQRIEVGHYESQLKHLIEEHVTETQSRFAAEILNDWAREVTKFWQVVPKEMLNRLEVPVHLPKAISAE	soluble
MAQIVRQSKFRHVFCKPVKHESCMSDIRVTEITWDSLFCDVNPKFIAFINRGAGGPFMVIPVNKIGRVDKDYPFVDAHKAPCLEVAWSPFNDNVIASCSEDTTCKVWVIPDRGLNRNLSEPAVELTGHQKRVNTIAWHPVANNVLLTAGGENVMFMWNVGTGEALLEISGHPDQIWSINFNFDGSQFVTTCKDKKIRILDSHTGEVVHEGMGHEGVKPQRAIFVKDGLILSTGFTKRSERLYALRAPEDLSTPIVEEELDTSNGVVFPFYDEDSGLVYLVGKGDCAIRYYEVNNDAPYVHYINTYTTNEPQRAVGFQSKRGMSSEENEINRIYKLTTKGVVDILQFFVPRKSDLFQHDLYPDTRSTIPALTAEEFMEGKNAAPNRQPVNAAAAAAAAKPKVQVAKKANILSTLAPTAAESVPTQSYSERPPSSQQPSPRPSASPRPRPVVDDDMGIVTMREAPPSRPASSRASRTEIPPKEESKVDPMKPKQAVQLKSRAARDEPGGGAQTAGQRRAAAELERIKRDQSRTADEDNTLAPPPSSSRASASPRGSVSAASDHVPQNMDELLEDLMKMKAVLRQHERRIRMLEEEIADRNMSNAYSF	not soluble
GASSLKDEVPTETSEDFGFKFLGQKQILPSFNEKLPFASLQNLDISNSKSLFVAASGSKAVVGELQLLRDHITSDSTPLTFKWEKEIPDVIFVCFHGDQVLVSTRNALYSLDLEELSEFRTVTSFEKPVFQLKNVNNTLVILNSVNDLSALDLRTKSTKQLAQNVTSFDVTNSQLAVLLKDRSFQSFAWRNGEMEKQFEFSLPSELEELPVEEYSPLSVTILSPQDFLAVFGNVISETDDEVSYDQKMYIIKHIDGSASFQETFDITPPFGQIVRFPYMYKVTLSGLIEPDANVNVLASSCSSEVSIWDSKQVIEPSQDSERAVLPISEETDKDTNPIGVAVDVVTSGTILEPCSGVDTIERLPLVYILNNEGSLQIVGLFHVAAIKS	soluble
MGSDKIHHHHHHMPYINVRGVEHYYEWVKQPSGDLVKPVMVFIHGWAGSARYWISTANALSDQFDCLLYDLRGFGRSQGKPTVAQASESVVGADSTQEKSQAIQELTYEIEEYAEDLVVLLDELKLQRVYVNAHSMGASVATMFFNRYPQRVERGILTCSGIFEYDEKAFAAFHKFGGYVVKFRPKWLGKIPLVDRMFMARFLHRPIPKSERKAFLEDFLVADYDTALGTIFTSVSKAQAEVMPQEFAKLQVPTLLVAGEYDQIIPAKMGRQAASLNDKVEFVLIPNTAHFPMLEDAPTYLRRVREFLQVATPELQTS	not soluble
